Patent US20030176678A1

Target: intact IFNAR1 from human cells (IFNAR1 chain of the type I interferon receptor) (human) (UniProt P17181)
Test: cell-based or functional assay

UniProt P17181, sequence (P17181 28-557): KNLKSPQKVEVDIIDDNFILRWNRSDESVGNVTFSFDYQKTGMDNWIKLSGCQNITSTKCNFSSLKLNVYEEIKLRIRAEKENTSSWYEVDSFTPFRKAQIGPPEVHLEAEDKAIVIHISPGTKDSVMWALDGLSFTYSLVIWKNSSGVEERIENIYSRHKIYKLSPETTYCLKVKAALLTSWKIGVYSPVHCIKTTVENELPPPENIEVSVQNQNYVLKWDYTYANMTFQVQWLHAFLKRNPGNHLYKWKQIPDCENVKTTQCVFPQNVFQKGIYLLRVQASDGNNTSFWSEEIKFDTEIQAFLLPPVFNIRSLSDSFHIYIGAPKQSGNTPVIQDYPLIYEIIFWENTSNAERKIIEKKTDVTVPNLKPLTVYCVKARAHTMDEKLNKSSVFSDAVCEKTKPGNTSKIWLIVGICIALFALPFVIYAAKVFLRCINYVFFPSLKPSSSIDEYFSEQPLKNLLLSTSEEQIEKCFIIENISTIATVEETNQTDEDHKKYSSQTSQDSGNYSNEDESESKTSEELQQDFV

## IR1B4/PRMT enzyme (endogenous protein of human myeloma U266S cells) (from UniProt Q99873 11-371)
  reduction in the growth inhibitory effect of IFN-β on myeloma U266S cells by antisense-1 oligonucleotide (Alamar Blue): < 5 fold
